Results from paper PMC2684960.

Molecular target: T1, phospho-IRF3 (S386), endogenous (human (endogenous in SALE)), Q14653
T1 chain: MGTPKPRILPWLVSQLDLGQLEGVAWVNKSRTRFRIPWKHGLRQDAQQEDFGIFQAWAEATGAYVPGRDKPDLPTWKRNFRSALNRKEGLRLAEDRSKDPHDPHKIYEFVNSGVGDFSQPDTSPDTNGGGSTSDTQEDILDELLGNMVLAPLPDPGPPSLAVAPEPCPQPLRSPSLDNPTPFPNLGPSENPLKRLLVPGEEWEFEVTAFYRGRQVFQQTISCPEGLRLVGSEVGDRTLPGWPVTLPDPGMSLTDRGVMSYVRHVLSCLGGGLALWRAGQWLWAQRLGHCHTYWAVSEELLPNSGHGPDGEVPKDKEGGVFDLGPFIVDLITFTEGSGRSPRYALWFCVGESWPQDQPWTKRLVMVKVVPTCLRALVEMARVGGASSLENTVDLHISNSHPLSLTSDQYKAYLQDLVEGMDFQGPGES
Test: native gel or EMSA
Settings: remark: other sources report otherwise

- stoichiometry N: 2
B1: phospho-IRF3 (S386), endogenous, Q14653 1-427 (natural protein)
chain: MGTPKPRILPWLVSQLDLGQLEGVAWVNKSRTRFRIPWKHGLRQDAQQEDFGIFQAWAEATGAYVPGRDKPDLPTWKRNFRSALNRKEGLRLAEDRSKDPHDPHKIYEFVNSGVGDFSQPDTSPDTNGGGSTSDTQEDILDELLGNMVLAPLPDPGPPSLAVAPEPCPQPLRSPSLDNPTPFPNLGPSENPLKRLLVPGEEWEFEVTAFYRGRQVFQQTISCPEGLRLVGSEVGDRTLPGWPVTLPDPGMSLTDRGVMSYVRHVLSCLGGGLALWRAGQWLWAQRLGHCHTYWAVSEELLPNSGHGPDGEVPKDKEGGVFDLGPFIVDLITFTEGSGRSPRYALWFCVGESWPQDQPWTKRLVMVKVVPTCLRALVEMARVGGASSLENTVDLHISNSHPLSLTSDQYKAYLQDLVEGMDFQGPGES
modifications: here or on the partner: phosphoserine at 386; phosphoserine at 386
